# Measured values as given in US20040157214A1.
# Target: bovine thyroglobulin (bovine) (UniProt P01267)
# Experiment: phage ELISA, 200 ug/ml thyroglobulin
# Chain of bovine thyroglobulin (bovine) (P01267 20-2769 limits assumed): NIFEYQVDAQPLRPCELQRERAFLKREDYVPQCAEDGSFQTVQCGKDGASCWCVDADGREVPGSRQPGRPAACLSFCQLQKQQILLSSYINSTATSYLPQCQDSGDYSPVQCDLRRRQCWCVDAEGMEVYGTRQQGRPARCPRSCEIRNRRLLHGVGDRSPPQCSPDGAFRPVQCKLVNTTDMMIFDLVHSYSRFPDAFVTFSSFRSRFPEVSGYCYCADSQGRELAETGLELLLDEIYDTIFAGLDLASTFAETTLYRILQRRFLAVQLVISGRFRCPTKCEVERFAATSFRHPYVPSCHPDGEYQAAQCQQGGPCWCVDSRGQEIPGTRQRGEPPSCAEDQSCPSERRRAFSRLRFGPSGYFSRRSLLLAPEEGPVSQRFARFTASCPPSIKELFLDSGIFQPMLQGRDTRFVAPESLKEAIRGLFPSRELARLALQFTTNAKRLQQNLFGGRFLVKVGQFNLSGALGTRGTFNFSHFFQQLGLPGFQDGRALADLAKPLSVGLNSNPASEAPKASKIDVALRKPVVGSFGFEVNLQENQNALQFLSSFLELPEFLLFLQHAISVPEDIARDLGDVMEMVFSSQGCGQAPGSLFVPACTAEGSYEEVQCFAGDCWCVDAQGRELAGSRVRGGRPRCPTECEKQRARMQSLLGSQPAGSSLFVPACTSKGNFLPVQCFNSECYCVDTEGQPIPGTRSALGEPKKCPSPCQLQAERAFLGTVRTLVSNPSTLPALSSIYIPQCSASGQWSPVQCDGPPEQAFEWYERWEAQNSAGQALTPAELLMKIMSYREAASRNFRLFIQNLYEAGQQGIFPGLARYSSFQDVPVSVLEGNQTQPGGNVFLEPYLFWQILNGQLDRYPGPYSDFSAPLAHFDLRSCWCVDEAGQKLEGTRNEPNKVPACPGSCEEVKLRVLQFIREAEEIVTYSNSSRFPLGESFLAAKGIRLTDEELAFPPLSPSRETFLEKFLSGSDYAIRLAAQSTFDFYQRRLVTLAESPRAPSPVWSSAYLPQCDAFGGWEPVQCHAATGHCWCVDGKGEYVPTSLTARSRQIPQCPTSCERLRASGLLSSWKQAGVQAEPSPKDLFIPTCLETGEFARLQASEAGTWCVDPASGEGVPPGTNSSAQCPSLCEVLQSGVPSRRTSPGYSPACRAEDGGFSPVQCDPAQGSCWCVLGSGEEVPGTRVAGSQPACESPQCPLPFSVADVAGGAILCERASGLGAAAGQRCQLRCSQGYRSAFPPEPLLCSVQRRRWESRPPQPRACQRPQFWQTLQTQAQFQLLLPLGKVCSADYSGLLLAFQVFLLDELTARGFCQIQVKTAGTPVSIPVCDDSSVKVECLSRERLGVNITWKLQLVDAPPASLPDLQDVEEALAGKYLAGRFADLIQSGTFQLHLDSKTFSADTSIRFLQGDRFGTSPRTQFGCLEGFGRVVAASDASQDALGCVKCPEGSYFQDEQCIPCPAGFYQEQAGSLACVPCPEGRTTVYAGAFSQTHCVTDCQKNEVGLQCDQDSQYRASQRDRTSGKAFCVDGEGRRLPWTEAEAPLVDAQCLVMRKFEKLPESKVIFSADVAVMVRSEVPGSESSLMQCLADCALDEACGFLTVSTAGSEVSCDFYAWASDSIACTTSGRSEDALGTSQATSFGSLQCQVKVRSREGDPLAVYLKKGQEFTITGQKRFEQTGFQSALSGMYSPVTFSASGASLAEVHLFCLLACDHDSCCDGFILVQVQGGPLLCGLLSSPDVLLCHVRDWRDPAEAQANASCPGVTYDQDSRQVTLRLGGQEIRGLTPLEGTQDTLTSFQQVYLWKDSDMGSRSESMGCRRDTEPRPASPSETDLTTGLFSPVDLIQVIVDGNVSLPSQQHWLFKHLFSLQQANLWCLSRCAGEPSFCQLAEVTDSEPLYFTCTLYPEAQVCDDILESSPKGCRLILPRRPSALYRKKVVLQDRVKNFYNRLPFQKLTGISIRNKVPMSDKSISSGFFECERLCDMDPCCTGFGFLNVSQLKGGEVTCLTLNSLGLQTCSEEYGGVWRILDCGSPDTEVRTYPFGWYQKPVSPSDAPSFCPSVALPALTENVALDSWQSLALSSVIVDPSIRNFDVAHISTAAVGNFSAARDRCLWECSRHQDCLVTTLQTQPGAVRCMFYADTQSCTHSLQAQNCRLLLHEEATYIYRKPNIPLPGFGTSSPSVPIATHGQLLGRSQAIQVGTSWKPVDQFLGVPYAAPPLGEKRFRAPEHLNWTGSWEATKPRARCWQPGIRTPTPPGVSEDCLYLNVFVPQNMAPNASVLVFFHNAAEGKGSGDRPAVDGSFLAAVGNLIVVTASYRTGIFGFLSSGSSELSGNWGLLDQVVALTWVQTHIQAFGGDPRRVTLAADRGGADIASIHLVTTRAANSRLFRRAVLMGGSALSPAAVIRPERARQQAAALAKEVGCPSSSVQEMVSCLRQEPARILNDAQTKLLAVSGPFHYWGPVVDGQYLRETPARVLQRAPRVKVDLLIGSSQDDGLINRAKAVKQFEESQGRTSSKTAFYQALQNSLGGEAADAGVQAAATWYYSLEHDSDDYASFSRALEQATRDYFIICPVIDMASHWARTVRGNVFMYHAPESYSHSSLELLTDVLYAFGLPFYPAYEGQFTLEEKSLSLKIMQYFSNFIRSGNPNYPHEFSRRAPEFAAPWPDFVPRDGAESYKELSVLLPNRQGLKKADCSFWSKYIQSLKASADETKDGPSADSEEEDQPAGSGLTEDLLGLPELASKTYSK
# Chain of pCAT-3 non-recombinant vector phagemid (P03661 19-424): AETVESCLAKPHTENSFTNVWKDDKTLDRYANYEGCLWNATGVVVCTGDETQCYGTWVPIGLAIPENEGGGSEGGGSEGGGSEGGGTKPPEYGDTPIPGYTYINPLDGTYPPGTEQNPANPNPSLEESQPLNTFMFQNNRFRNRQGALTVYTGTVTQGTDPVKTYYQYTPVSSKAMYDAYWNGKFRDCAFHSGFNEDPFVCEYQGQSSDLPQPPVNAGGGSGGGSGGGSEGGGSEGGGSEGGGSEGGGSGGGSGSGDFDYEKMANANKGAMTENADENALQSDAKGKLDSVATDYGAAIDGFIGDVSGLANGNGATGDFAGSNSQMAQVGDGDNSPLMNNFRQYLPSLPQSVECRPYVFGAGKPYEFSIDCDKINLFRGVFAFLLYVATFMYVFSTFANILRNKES
substance,measurement,value
pCAT-3 non-recombinant vector phagemid (from UniProt P03661 19-424),ELISA O.D.,0.07 O.D.
